Test results from the supplement of paper PMC9112550, “Optimization of the antimicrobial peptide Bac7 by deep mutational scanning” (BMC Biology, 2022).

Test system: Escherichia coli TOP10
Experiment: shrunken log2 fold change of peptide-encoding DNA abundance (4.5 h post-induction vs induction); higher = less antimicrobial activity (less host growth inhibition)
Conditions: time post-induction: 4.5 h; library: site-saturation at positions 5, 18, 19, 20
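Further: peptides expressed intracellularly from a pBAD plasmid library in pooled LB shake-flask culture, induced with 0.3% L-arabinose, DNA abundance read by NGS, three biological replicates, DESeq2 with apeglm shrinkage.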

Sequence | shrunken log2 fold change
RRIRDRPPRLPRPRPRPTAMPRP | 0.858
RRIRNRPPRLPRPRPRPCVMPRP | 0.0192
RRIRCRPPRLPRPRPRPRKPPRP | 0.218
RRIRHRPPRLPRPRPRPHRDPRP | -0.263
RRIRYRPPRLPRPRPRPLFRPRP | -0.66
RRIRLRPPRLPRPRPRPPNLPRP | -0.321
RRIRHRPPRLPRPRPRPAWFPRP | 0.211
RRIRARPPRLPRPRPRPTAHPRP | 0.485
RRIRGRPPRLPRPRPRPPDQPRP | 1.14
RRIRVRPPRLPRPRPRPYTNPRP | -0.656
RRIRNRPPRLPRPRPRPAQTPRP | -0.0137
RRIRDRPPRLPRPRPRPSGNPRP | 0.499
RRIRCRPPRLPRPRPRPPNRPRP | 0.444
RRIRWRPPRLPRPRPRPVSDPRP | 0.191
RRIRPRPPRLPRPRPRPPELPRP | 0.206
RRIRSRPPRLPRPRPRPLPGPRP | 0.0761
RRIRYRPPRLPRPRPRPLITPRP | -0.749
RRIRHRPPRLPRPRPRPQYHPRP | -0.972
RRIRFRPPRLPRPRPRPLNAPRP | -0.166
RRIRGRPPRLPRPRPRPKDIPRP | -0.0187
RRIRWRPPRLPRPRPRPYVDPRP | -0.171
RRIRHRPPRLPRPRPRPFKTPRP | -0.256
RRIRNRPPRLPRPRPRPVVSPRP | -0.153

Sequence | shrunken log2 fold change
RRIRVRPPRLPRPRPRPYIFPRP | -0.864
RRIRARPPRLPRPRPRPIWRPRP | 0.426
RRIRSRPPRLPRPRPRPANGPRP | -0.0714
RRIRQRPPRLPRPRPRPQPPPRP | 0.194
RRIRCRPPRLPRPRPRPQKNPRP | -0.281
RRIRYRPPRLPRPRPRPCMMPRP | 0.00911
RRIRYRPPRLPRPRPRPPEVPRP | -0.142
RRIRYRPPRLPRPRPRPCYPPRP | -0.37
RRIRPRPPRLPRPRPRPYIKPRP | -0.939
RRIRFRPPRLPRPRPRPEWCPRP | 0.0522
RRIRWRPPRLPRPRPRPYACPRP | -0.355
RRIRVRPPRLPRPRPRPQGNPRP | 0.055
RRIRQRPPRLPRPRPRPNEAPRP | -0.0868
RRIRWRPPRLPRPRPRPGWEPRP | 0.292
RRIRVRPPRLPRPRPRPQIHPRP | -1.01
RRIRSRPPRLPRPRPRPEDNPRP | 0.24
RRIRARPPRLPRPRPRPWEGPRP | 0.209
RRIRFRPPRLPRPRPRPTMKPRP | -0.178
RRIRPRPPRLPRPRPRPPVVPRP | 0.649
RRIRVRPPRLPRPRPRPDHTPRP | -0.428
RRIRIRPPRLPRPRPRPWKTPRP | -0.197
RRIRIRPPRLPRPRPRPLWNPRP | -0.598
RRIRSRPPRLPRPRPRPTKMPRP | 0.00603

Sequence | shrunken log2 fold change
RRIRFRPPRLPRPRPRPIQFPRP | -0.000317
RRIRLRPPRLPRPRPRPYCKPRP | -0.736
RRIRQRPPRLPRPRPRPMESPRP | -0.0548
RRIRHRPPRLPRPRPRPSNFPRP | -0.108
RRIRARPPRLPRPRPRPYVFPRP | -0.245
RRIRYRPPRLPRPRPRPRFQPRP | -0.201
RRIRSRPPRLPRPRPRPYYYPRP | -0.507
RRIRQRPPRLPRPRPRPSTDPRP | -0.468
RRIRKRPPRLPRPRPRPGIVPRP | 0.0403
RRIRHRPPRLPRPRPRPYEAPRP | -0.445
RRIRYRPPRLPRPRPRPCLGPRP | -0.231
RRIRERPPRLPRPRPRPGRFPRP | 0.0216
RRIRKRPPRLPRPRPRPCMIPRP | 0.0302
RRIRFRPPRLPRPRPRPDTMPRP | -0.0817
RRIRRRPPRLPRPRPRPFNSPRP | 0.0474
RRIRKRPPRLPRPRPRPDAWPRP | -0.0106
RRIRNRPPRLPRPRPRPDIFPRP | -0.172
RRIRERPPRLPRPRPRPRQQPRP | 0.357
RRIRIRPPRLPRPRPRPMPQPRP | -0.133
RRIRSRPPRLPRPRPRPWFEPRP | -0.0139
RRIRERPPRLPRPRPRPQHNPRP | -0.771
RRIRSRPPRLPRPRPRPQCNPRP | -0.13
RRIRVRPPRLPRPRPRPFQYPRP | -0.453

Sequence | shrunken log2 fold change
RRIRERPPRLPRPRPRPFAGPRP | -1.68
RRIRYRPPRLPRPRPRPWQPPRP | -0.274
RRIRFRPPRLPRPRPRPFSCPRP | -0.599
RRIRYRPPRLPRPRPRPQVWPRP | -0.0375
RRIRIRPPRLPRPRPRPQNAPRP | -0.297
RRIRIRPPRLPRPRPRPFCKPRP | -0.893
RRIRERPPRLPRPRPRPAYVPRP | -0.859
RRIRFRPPRLPRPRPRPFKIPRP | -0.049
RRIRARPPRLPRPRPRPKRYPRP | 0.159
RRIRWRPPRLPRPRPRPVKSPRP | 0.0342
RRIRCRPPRLPRPRPRPLMWPRP | -0.185
RRIRPRPPRLPRPRPRPSKNPRP | -0.333
RRIRTRPPRLPRPRPRPCERPRP | -0.018
RRIRDRPPRLPRPRPRPHWMPRP | 0.236
RRIRWRPPRLPRPRPRPSNIPRP | -0.699
RRIRGRPPRLPRPRPRPVNSPRP | 0.0202
RRIRTRPPRLPRPRPRPGLAPRP | 0.308
RRIRARPPRLPRPRPRPHDGPRP | 0.373
RRIRCRPPRLPRPRPRPICLPRP | -0.127
RRIRHRPPRLPRPRPRPRDKPRP | -0.132
RRIRNRPPRLPRPRPRPMHYPRP | -0.13
RRIRIRPPRLPRPRPRPQDNPRP | -0.954
